Test results: patent US20200079850A1

Experiments:
[1] = target: cynomolgus LAG3 expressed on the cell surface (293T or CHO cells) (cynomolgus monkey); test: flow cytometry, 293T cells expressing cyno LAG3
[2] = target: cynomolgus LAG3-Fc (accession # NC 022282.1) (cynomolgus monkey); test: SPR (Biacore), antibody captured by anti-Flag, cyno LAG3-Fc as analyte, 25 C
Sequence of cynomolgus LAG3-Fc (accession # NC 022282.1) (cynomolgus monkey) (P18627 other isoform, or with tags, fused parts or gaps limits assumed, form in doubt): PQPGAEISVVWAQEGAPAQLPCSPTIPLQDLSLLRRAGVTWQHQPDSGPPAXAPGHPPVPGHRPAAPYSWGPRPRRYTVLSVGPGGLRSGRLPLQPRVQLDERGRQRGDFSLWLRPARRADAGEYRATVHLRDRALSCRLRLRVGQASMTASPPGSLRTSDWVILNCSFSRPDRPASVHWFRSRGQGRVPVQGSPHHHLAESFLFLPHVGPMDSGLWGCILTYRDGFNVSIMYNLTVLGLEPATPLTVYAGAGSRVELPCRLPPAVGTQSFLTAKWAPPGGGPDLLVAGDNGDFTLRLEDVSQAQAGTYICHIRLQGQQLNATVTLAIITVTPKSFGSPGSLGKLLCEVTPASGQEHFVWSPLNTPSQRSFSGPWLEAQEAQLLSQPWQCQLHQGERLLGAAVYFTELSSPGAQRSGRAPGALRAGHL

Sequence of cynomolgus LAG3 expressed on the cell surface (293T or CHO cells) (cynomolgus monkey) (P18627 other isoform, or with tags, fused parts or gaps limits assumed, form in doubt): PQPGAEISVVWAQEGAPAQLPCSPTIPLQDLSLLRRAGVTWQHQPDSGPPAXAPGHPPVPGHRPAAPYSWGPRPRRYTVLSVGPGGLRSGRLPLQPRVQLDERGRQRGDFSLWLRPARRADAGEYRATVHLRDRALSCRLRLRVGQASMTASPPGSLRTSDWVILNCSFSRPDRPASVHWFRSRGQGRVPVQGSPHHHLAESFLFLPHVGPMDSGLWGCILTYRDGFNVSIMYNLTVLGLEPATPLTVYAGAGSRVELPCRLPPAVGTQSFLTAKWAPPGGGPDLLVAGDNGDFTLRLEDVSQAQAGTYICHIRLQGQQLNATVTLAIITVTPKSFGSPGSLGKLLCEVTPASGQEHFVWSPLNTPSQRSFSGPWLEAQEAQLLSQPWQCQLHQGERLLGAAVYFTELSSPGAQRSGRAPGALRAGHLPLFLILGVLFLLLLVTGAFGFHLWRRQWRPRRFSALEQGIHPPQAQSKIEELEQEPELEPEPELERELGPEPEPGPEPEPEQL

B1: 421.61.4.5G11 (antibody, V domains shown)
VH: EVQLQQSGAELVRSGASVKLSCTASGFNIKDYYMHWVKQRPEQGLEWIAWIDPENGDTEYAPKFQGRATLTADTSSNTAYLHLSSLTSEDTAVYYCNAPDALDYWGQGTSVTVSS
VL: not shown
B1 was tested, and the Kd [1] was 4.5 nM, the Kd [2] was 4.51 nM and the koff [2] was 0.000641 s⁻¹.
